Reference: article PMC2734569, “Functional mapping of the fission yeast DNA polymerase δ B-subunit Cdc1 by site-directed and random pentapeptide insertion mutagenesis” (BMC Molecular Biology, 2009)
Positions count from the first letter of the chain named. Values belong to the binder of their own block, whether it stands above or below them.

How the values were obtained:
[1] = biological target: Cdc1-J17 (Schizosaccharomyces pombe) (UniProt P87324); assay: two-hybrid; LexA-Cdc1 bait (pBTM116 or pBTM116BN) with Gal4-Pol3 prey and co-expressed c-myc-tagged Cdc27 (pAA-Cdc27) in S. cerevisiae CTY10-5d; ONPG liquid culture beta-galactosidase assay, mean of triplicates, as percent of wild-type Cdc1
Cdc1-E4 = biological target: T1, Cdc1-E4 (Schizosaccharomyces pombe, UniProt P87324 1-462, Cys-GlyValProProCys-Glu); assay: two-hybrid; LexA-Cdc1 bait (pBTM116 or pBTM116BN) with Gal4 activation domain-Cdc27 prey (pGAD2F-Cdc27) in S. cerevisiae CTY10-5d; ONPG liquid culture beta-galactosidase assay, mean of triplicates, as percent of wild-type Cdc1; settings: partners not purified
T1 construct: Cdc1, S. pombe, with a pentapeptide inserted after residue 10; source: yeast two-hybrid fusion, in S. cerevisiae CTY10-5d
T1 sequence (looked up): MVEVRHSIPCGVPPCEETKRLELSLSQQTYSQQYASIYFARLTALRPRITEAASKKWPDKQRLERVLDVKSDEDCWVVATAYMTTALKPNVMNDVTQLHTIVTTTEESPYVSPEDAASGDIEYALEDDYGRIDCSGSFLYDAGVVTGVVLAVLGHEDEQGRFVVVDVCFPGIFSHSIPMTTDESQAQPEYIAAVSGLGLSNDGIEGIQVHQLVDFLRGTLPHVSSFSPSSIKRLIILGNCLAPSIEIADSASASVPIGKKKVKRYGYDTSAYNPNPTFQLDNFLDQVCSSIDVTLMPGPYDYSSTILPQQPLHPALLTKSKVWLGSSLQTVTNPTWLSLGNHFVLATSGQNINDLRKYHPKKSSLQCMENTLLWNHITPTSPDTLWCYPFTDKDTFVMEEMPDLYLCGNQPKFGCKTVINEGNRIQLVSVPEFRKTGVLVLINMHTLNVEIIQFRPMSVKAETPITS

Cdc1-A7 = biological target: T2, Cdc1-A7 (Schizosaccharomyces pombe, UniProt P87324 1-462, Gly344Ala); assay: as above; settings: partners not purified
T2 construct: Cdc1, S. pombe, point mutant; source: yeast two-hybrid fusion, in S. cerevisiae CTY10-5d
T2 sequence (looked up): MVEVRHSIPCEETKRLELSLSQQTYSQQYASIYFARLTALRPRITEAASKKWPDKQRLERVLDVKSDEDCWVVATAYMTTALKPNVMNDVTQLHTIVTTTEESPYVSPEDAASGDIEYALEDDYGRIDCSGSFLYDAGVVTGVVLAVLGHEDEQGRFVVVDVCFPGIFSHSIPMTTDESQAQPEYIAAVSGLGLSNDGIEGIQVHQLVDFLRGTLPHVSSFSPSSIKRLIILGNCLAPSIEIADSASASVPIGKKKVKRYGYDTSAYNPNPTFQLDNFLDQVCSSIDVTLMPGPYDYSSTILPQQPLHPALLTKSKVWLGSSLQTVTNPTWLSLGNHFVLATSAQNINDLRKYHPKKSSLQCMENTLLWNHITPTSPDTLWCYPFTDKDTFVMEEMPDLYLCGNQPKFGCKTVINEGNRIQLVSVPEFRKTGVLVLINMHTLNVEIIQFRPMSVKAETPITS

Cdc1-A8 = biological target: T3, Cdc1-A8 (Schizosaccharomyces pombe, UniProt P87324 1-462, Pro374Ala); assay: as above; settings: partners not purified
T3 construct: Cdc1, S. pombe, point mutant; source: yeast two-hybrid fusion, in S. cerevisiae CTY10-5d
T3 sequence (looked up): T2 sequence (looked up) with A344G, P374A

Cdc1-J16 = biological target: T4, Cdc1-J16 (Schizosaccharomyces pombe, UniProt P87324 1-462, Val-GlyGlyThrProVal-Asp); assay: as above; settings: partners not purified
T4 construct: Cdc1, S. pombe, with a pentapeptide inserted after residue 160; source: yeast two-hybrid fusion, in S. cerevisiae CTY10-5d
T4 sequence (looked up): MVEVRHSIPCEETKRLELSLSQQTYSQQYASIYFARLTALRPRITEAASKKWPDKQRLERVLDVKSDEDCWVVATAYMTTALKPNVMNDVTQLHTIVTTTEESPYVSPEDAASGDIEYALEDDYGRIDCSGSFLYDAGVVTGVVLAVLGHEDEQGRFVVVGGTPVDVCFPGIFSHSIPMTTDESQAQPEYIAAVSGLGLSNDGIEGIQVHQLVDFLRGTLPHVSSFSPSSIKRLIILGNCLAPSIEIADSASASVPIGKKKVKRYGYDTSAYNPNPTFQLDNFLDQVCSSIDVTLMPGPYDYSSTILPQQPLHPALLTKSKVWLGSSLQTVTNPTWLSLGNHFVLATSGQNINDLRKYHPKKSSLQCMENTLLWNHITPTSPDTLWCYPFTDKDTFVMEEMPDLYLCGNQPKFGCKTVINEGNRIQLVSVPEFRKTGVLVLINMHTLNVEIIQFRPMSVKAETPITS

[2] = biological target: Cdc1-J17 (Schizosaccharomyces pombe) (UniProt P87324); assay: as above

- two-hybrid beta-galactosidase activity, % of wild-type Cdc1 [1]: 2%
B1: Pol3 (fission yeast DNA polymerase delta catalytic subunit) (natural protein, Schizosaccharomyces pombe, UniProt P30316 1-1086, looked up)
chain: MTDRSSNEGVVLNKENYPFPRRNGSIHGEITDVKRRRLSERNGYGDKKGSSSKEKTSSFEDELAEYASQLDQDEIKSSKDQQWQRPALPAINPEKDDIYFQQIDSEEFTEGSVPSIRLFGVTDNGNSILVHVVGFLPYFYVKAPVGFRPEMLERFTQDLDATCNGGVIDHCIIEMKENLYGFQGNEKSPFIKIFTTNPRILSRARNVFERGEFNFEELFPVGVGVTTFESNTQYLLRFMIDCDVVGMNWIHLPASKYQFRYQNRVSNCQIEAWINYKDLISLPAEGQWSKMAPLRIMSFDIECAGRKGVFPDPSIDPVIQIASIVTQYGDSTPFVRNVFCVDTCSQIVGTQVYEFQNQAEMLSSWSKFVRDVDPDVLIGYNICNFDIPYLLDRAKSLRIHNFPLLGRIHNFFSVAKETTFSSKAYGTRESKTTSIPGRLQLDMLQVMQRDFKLRSYSLNAVCSQFLGEQKEDVHYSIITDLQNGTADSRRRLAIYCLKDAYLPQRLMDKLMCFVNYTEMARVTGVPFNFLLARGQQIKVISQLFRKALQHDLVVPNIRVNGTDEQYEGATVIEPIKGYYDTPIATLDFSSLYPSIMQAHNLCYTTLLDSNTAELLKLKQDVDYSVTPNGDYFVKPHVRKGLLPIILADLLNARKKAKADLKKETDPFKKAVLDGRQLALKVSANSVYGFTGATNGRLPCLAISSSVTSYGRQMIEKTKDVVEKRYRIENGYSHDAVVIYGDTDSVMVKFGVKTLPEAMKLGEEAANYVSDQFPNPIKLEFEKVYFPYLLISKKRYAGLFWTRTDTYDKMDSKGIETVRRDNCPLVSYVIDTALRKMLIDQDVEGAQLFTKKVISDLLQNKIDMSQLVITKALSKTDYAAKMAHVELAERMRKRDAGSAPAIGDRVAYVIIKGAQGDQFYMRSEDPIYVLENNIPIDAKYYLENQLSKPLLRIFEPILGEKASSLLHGDHTRTISMAAPSVGGIMKFAVKVETCLGCKAPIKKGKTALCENCLNRSAELYQRQVAQVNDLEVRFARLWTQCQRCQGSMHQDVICTSRDCPIFYMRIAEHKKLQQSVDLLKRFDEMSW
notes: DNA polymerase delta catalytic subunit Pol3, S. pombe; prey plasmid named pACT-Pol3 in the results and pGAD2F-Pol3 in the methods; also called Gal4-Pol3; pACT-Pol3; source: yeast two-hybrid fusion, in S. cerevisiae CTY10-5d

- two-hybrid beta-galactosidase activity, % of wild-type Cdc1 (Cdc1-E4): 62%
- two-hybrid beta-galactosidase activity, % of wild-type Cdc1 (Cdc1-A7): < 1%
- two-hybrid beta-galactosidase activity, % of wild-type Cdc1 (Cdc1-A8): 8%
- two-hybrid beta-galactosidase activity, % of wild-type Cdc1 (Cdc1-J16): < 1%
- two-hybrid beta-galactosidase activity, % of wild-type Cdc1 [2]: < 1%
B2: Cdc27 (fission yeast DNA polymerase delta C-subunit) (natural protein, Schizosaccharomyces pombe, UniProt P30261 1-372, looked up)
chain: MEEWRNFLDIKVINESSLVTVDNLSLQLDISSEKAQEYLNMFYQGNDFLYPIYLIHGQPIDDEINLEIDEESQPISNFPVLQYILCDKSSLQEKQSRLKSGYKTVIFALSSAPLSDFDELLPAVYEIREKDVLYKKEDADKYGFIFNENSVPRVLKKAPSTHSPQLSVPSKTSTIDKTDTRSTEKTKGKDIFSNARNQKGNSSRKNKKAPLENHKEKEPLLPKEEKLSEQAKRERDDLKNIMQLEDESVSTTSVHDSEDDNLDSNNFQLEIGTEAKSAAPDEPQEIIKSVSGGKRRGKRKVKKYATTKDEEGFLVTKEEEVWESFSEDENISTGTSNVVRNKPTTVNIATKKKNTAQSKPQQKSIMSFFGKK
notes: DNA polymerase delta C-subunit Cdc27, S. pombe; prey plasmid pGAD2F-Cdc27; also called pGAD2F-Cdc27; source: yeast two-hybrid fusion, in S. cerevisiae CTY10-5d
